According to article PMC4872150:

Target: nucleolin (UniProt P19338)
Test: SPR
Conditions: BIAcore 3000, nucleolin on CM5 chip, 10 mM HEPES, 150 mM NaCl, 3 mM EDTA, 0.005% surfactant P20, pH 7.4, 25 °C

Sequence of UniProt P19338 (P19338 whole entry): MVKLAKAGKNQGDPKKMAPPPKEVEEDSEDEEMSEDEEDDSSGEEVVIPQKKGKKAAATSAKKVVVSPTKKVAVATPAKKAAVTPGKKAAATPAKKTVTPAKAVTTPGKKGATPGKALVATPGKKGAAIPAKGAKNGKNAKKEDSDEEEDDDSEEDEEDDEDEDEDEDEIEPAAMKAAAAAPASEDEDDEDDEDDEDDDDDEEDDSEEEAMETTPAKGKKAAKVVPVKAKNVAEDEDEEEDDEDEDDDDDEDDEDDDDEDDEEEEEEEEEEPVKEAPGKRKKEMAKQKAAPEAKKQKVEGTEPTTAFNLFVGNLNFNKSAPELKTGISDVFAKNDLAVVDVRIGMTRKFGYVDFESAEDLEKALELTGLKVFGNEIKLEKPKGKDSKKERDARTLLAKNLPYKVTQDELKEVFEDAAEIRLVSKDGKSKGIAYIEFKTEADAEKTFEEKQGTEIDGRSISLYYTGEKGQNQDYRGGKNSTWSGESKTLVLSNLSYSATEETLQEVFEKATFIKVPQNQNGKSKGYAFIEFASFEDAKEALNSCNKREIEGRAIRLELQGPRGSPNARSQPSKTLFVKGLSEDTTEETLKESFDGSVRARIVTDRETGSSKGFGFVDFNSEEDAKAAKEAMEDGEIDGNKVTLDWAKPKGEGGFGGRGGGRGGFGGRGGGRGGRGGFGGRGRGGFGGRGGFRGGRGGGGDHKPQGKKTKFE

Sequence: GGTGGTGGTGGNTGTGGTGGTGGNGG [FAN-1224dI]
- Kd (N = 2'-deoxyinosine at positions 12 and 24 (replacing T)): 0.0322 µM

Sequence: GGTGGTGGTGGTNGTGGTGGTGGNGG [FAN-1324dI]
- Kd (N = 2'-deoxyinosine at positions 13 and 24 (replacing T)): 0.0309 µM

Sequence: GGTGGTGGTGGTTGNGGTGGTGGNGG [FAN-1524dI]
- Kd (N = 2'-deoxyinosine at positions 15 and 24 (replacing T)): 0.037 µM

Sequence: GGTGGTGGTGGTTGTGGTGGTGGTGG [AS1411]
- Kd: 0.169 µM
